# Source: US20030171559A1 (Amgen, published 2003)
# T1: G-CSF receptor (natural G-CSF receptor, found on hematopoietic cells) (mouse (bone marrow cells of Balb C …, UniProt P40223 26-837))
# T1 sequence (looked up): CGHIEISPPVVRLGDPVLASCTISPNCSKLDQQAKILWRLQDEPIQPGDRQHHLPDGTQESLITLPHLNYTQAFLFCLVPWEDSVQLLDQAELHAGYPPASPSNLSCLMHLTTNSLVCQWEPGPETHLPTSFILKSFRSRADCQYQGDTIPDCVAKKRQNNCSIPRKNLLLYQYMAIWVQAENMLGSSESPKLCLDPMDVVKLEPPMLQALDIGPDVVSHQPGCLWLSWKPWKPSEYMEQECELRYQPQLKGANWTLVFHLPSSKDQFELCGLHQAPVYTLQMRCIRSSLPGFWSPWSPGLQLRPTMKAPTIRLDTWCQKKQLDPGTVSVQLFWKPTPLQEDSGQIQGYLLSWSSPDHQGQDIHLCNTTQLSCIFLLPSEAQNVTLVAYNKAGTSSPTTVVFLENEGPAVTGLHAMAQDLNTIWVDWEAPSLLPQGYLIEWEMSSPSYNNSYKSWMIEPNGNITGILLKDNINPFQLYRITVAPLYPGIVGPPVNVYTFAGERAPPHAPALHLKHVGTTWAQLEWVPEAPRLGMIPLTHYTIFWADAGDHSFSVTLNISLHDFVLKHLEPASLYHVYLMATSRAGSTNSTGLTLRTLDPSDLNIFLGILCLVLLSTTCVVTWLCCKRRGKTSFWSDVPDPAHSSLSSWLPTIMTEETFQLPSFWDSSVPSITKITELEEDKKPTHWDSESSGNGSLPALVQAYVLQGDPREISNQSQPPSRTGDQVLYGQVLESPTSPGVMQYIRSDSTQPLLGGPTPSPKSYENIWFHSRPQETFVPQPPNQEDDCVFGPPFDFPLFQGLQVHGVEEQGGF
# Molecular target: T1, G-CSF receptor (natural G-CSF receptor, …)
# Assay: cell-based or functional assay
row,"% Normal G-CSF Activity (3H-thymidine uptake, mouse bone marrow cells)",Binder
1,51%,G-CSF analog Gln26->Ala26 (ligand) MTPLGPASSLPQSFLLKCLEQVRKIAGDGAALQEKLCATYKLCHPEELVLLGHSLGIPWAPLSSCPSQALQLAGCLSQLHSGLFLYQGLLQALEGISPELGPTLDTLQLDVADFATTIWQQMEELGMAPALQPTQGAMPAFASAFQRRAGGVLVASHLQSFLEVSYRVLRHLAQP
2,100%,G-CSF analog Gln121->Ala121 (ligand) MTPLGPASSLPQSFLLKCLEQVRKIQGDGAALQEKLCATYKLCHPEELVLLGHSLGIPWAPLSSCPSQALQLAGCLSQLHSGLFLYQGLLQALEGISPELGPTLDTLQLDVADFATTIWQAMEELGMAPALQPTQGAMPAFASAFQRRAGGVLVASHLQSFLEVSYRVLRHLAQP
3,147%,G-CSF analog Asp28->Ala28 (ligand) MTPLGPASSLPQSFLLKCLEQVRKIQGAGAALQEKLCATYKLCHPEELVLLGHSLGIPWAPLSSCPSQALQLAGCLSQLHSGLFLYQGLLQALEGISPELGPTLDTLQLDVADFATTIWQQMEELGMAPALQPTQGAMPAFASAFQRRAGGVLVASHLQSFLEVSYRVLRHLAQP
4,0%,G-CSF analog Glu20->Ala20; Ser13->Gly13 (ligand) MTPLGPASSLPQGFLLKCLAQVRKIQGDGAALQEKLCATYKLCHPEELVLLGHSLGIPWAPLSSCPSQALQLAGCLSQLHSGLFLYQGLLQALEGISPELGPTLDTLQLDVADFATTIWQQMEELGMAPALQPTQGAMPAFASAFQRRAGGVLVASHLQSFLEVSYRVLRHLAQP
5,70%,G-CSF analog Lys17->Ala17 (ligand) MTPLGPASSLPQSFLLACLEQVRKIQGDGAALQEKLCATYKLCHPEELVLLGHSLGIPWAPLSSCPSQALQLAGCLSQLHSGLFLYQGLLQALEGISPELGPTLDTLQLDVADFATTIWQQMEELGMAPALQPTQGAMPAFASAFQRRAGGVLVASHLQSFLEVSYRVLRHLAQP
6,29%,G-CSF analog Asp110->Ala110 (ligand) MTPLGPASSLPQSFLLKCLEQVRKIQGDGAALQEKLCATYKLCHPEELVLLGHSLGIPWAPLSSCPSQALQLAGCLSQLHSGLFLYQGLLQALEGISPELGPTLDTLQLAVADFATTIWQQMEELGMAPALQPTQGAMPAFASAFQRRAGGVLVASHLQSFLEVSYRVLRHLAQP
7,100%,G-CSF analog Gln174->Ala174 (ligand) MTPLGPASSLPQSFLLKCLEQVRKIQGDGAALQEKLCATYKLCHPEELVLLGHSLGIPWAPLSSCPSQALQLAGCLSQLHSGLFLYQGLLQALEGISPELGPTLDTLQLDVADFATTIWQQMEELGMAPALQPTQGAMPAFASAFQRRAGGVLVASHLQSFLEVSYRVLRHLAAP
8,81%,G-CSF analog Lys41->Ala41 (ligand) MTPLGPASSLPQSFLLKCLEQVRKIQGDGAALQEKLCATYALCHPEELVLLGHSLGIPWAPLSSCPSQALQLAGCLSQLHSGLFLYQGLLQALEGISPELGPTLDTLQLDVADFATTIWQQMEELGMAPALQPTQGAMPAFASAFQRRAGGVLVASHLQSFLEVSYRVLRHLAQP
9,100%,G-CSF analog Arg170->Ala170 (ligand) MTPLGPASSLPQSFLLKCLEQVRKIQGDGAALQEKLCATYKLCHPEELVLLGHSLGIPWAPLSSCPSQALQLAGCLSQLHSGLFLYQGLLQALEGISPELGPTLDTLQLDVADFATTIWQQMEELGMAPALQPTQGAMPAFASAFQRRAGGVLVASHLQSFLEVSYRVLAHLAQP
10,110%,G-CSF analog Arg167->Ala167 (ligand) MTPLGPASSLPQSFLLKCLEQVRKIQGDGAALQEKLCATYKLCHPEELVLLGHSLGIPWAPLSSCPSQALQLAGCLSQLHSGLFLYQGLLQALEGISPELGPTLDTLQLDVADFATTIWQQMEELGMAPALQPTQGAMPAFASAFQRRAGGVLVASHLQSFLEVSYAVLRHLAQP
11,9.6%,G-CSF analog Gln21->Ala21 (ligand) MTPLGPASSLPQSFLLKCLEAVRKIQGDGAALQEKLCATYKLCHPEELVLLGHSLGIPWAPLSSCPSQALQLAGCLSQLHSGLFLYQGLLQALEGISPELGPTLDTLQLDVADFATTIWQQMEELGMAPALQPTQGAMPAFASAFQRRAGGVLVASHLQSFLEVSYRVLRHLAQP
12,0%,"G-CSF analog Phe114->Val114, Thr117->Ala117 (ligand) MTPLGPASSLPQSFLLKCLEQVRKIQGDGAALQEKLCATYKLCHPEELVLLGHSLGIPWAPLSSCPSQALQLAGCLSQLHSGLFLYQGLLQALEGISPELGPTLDTLQLDVADVATAIWQQMEELGMAPALQPTQGAMPAFASAFQRRAGGVLVASHLQSFLEVSYRVLRHLAQP"
13,98%,"G-CSF analog Met127,138->Leu127,138 (ligand) MTPLGPASSLPQSFLLKCLEQVRKIQGDGAALQEKLCATYKLCHPEELVLLGHSLGIPWAPLSSCPSQALQLAGCLSQLHSGLFLYQGLLQALEGISPELGPTLDTLQLDVADFATTIWQQMEELGLAPALQPTQGALPAFASAFQRRAGGVLVASHLQSFLEVSYRVLRHLAQP"
14,70%,G-CSF analog His44->Lys44 (ligand) MTPLGPASSLPQSFLLKCLEQVRKIQGDGAALQEKLCATYKLCKPEELVLLGHSLGIPWAPLSSCPSQALQLAGCLSQLHSGLFLYQGLLQALEGISPELGPTLDTLQLDVADFATTIWQQMEELGMAPALQPTQGAMPAFASAFQRRAGGVLVASHLQSFLEVSYRVLRHLAQP
15,8.3%,G-CSF analog His53->Ala53 (ligand) MTPLGPASSLPQSFLLKCLEQVRKIQGDGAALQEKLCATYKLCHPEELVLLGASLGIPWAPLSSCPSQALQLAGCLSQLHSGLFLYQGLLQALEGISPELGPTLDTLQLDVADFATTIWQQMEELGMAPALQPTQGAMPAFASAFQRRAGGVLVASHLQSFLEVSYRVLRHLAQP
16,0%,G-CSF analog Glu20->Ala20 (ligand) MTPLGPASSLPQSFLLKCLAQVRKIQGDGAALQEKLCATYKLCHPEELVLLGHSLGIPWAPLSSCPSQALQLAGCLSQLHSGLFLYQGLLQALEGISPELGPTLDTLQLDVADFATTIWQQMEELGMAPALQPTQGAMPAFASAFQRRAGGVLVASHLQSFLEVSYRVLRHLAQP
17,10.8%,G-CSF analog His44->Ala44 (ligand) MTPLGPASSLPQSFLLKCLEQVRKIQGDGAALQEKLCATYKLCAPEELVLLGHSLGIPWAPLSSCPSQALQLAGCLSQLHSGLFLYQGLLQALEGISPELGPTLDTLQLDVADFATTIWQQMEELGMAPALQPTQGAMPAFASAFQRRAGGVLVASHLQSFLEVSYRVLRHLAQP
18,110%,G-CSF analog Ser13->Ala13 (ligand) MTPLGPASSLPQAFLLKCLEQVRKIQGDGAALQEKLCATYKLCHPEELVLLGHSLGIPWAPLSSCPSQALQLAGCLSQLHSGLFLYQGLLQALEGISPELGPTLDTLQLDVADFATTIWQQMEELGMAPALQPTQGAMPAFASAFQRRAGGVLVASHLQSFLEVSYRVLRHLAQP
19,20.6%,G-CSF analog Asp28->Ala28; Asp110->Ala110 (ligand) MTPLGPASSLPQSFLLKCLEQVRKIQGAGAALQEKLCATYKLCHPEELVLLGHSLGIPWAPLSSCPSQALQLAGCLSQLHSGLFLYQGLLQALEGISPELGPTLDTLQLAVADFATTIWQQMEELGMAPALQPTQGAMPAFASAFQRRAGGVLVASHLQSFLEVSYRVLRHLAQP
20,0%,G-CSF analog Asp113->Ala113 (ligand) MTPLGPASSLPQSFLLKCLEQVRKIQGDGAALQEKLCATYKLCHPEELVLLGHSLGIPWAPLSSCPSQALQLAGCLSQLHSGLFLYQGLLQALEGISPELGPTLDTLQLDVAAFATTIWQQMEELGMAPALQPTQGAMPAFASAFQRRAGGVLVASHLQSFLEVSYRVLRHLAQP
21,9.7%,G-CSF analog Thr117->Ala117 (ligand) MTPLGPASSLPQSFLLKCLEQVRKIQGDGAALQEKLCATYKLCHPEELVLLGHSLGIPWAPLSSCPSQALQLAGCLSQLHSGLFLYQGLLQALEGISPELGPTLDTLQLDVADFATAIWQQMEELGMAPALQPTQGAMPAFASAFQRRAGGVLVASHLQSFLEVSYRVLRHLAQP
22,75%,G-CSF analog Glu124->Ala124 (ligand) MTPLGPASSLPQSFLLKCLEQVRKIQGDGAALQEKLCATYKLCHPEELVLLGHSLGIPWAPLSSCPSQALQLAGCLSQLHSGLFLYQGLLQALEGISPELGPTLDTLQLDVADFATTIWQQMEALGMAPALQPTQGAMPAFASAFQRRAGGVLVASHLQSFLEVSYRVLRHLAQP
